Results published in US20050181450A1, “Novel inositol 1,4,5-trisphosphate (IP3) receptor-binding protein and an IP3 indicator” (priority 2002, published 2005).

Experiments:
GST-EL (IP3R) = target: T1, GST-EL (IP3R) (Mus musculus, UniProt P11881, N1264K); experiment: [3H]IP3 binding to GST-EL
T1 construct: construct a GST-IP3R1 (1-2217) vector (termed GST-EL); made in house; host or cells: GST-EL: Sf9 cells; His-IRBIT: Sf9 cells or E. coli
Experimental: (A) 0.2 μg of GST-EL was incubated with 0.1, 1, or 10 μg of purified His-tagged IRBIT expressed in Sf9 cells or E. coli in a solution containing 50 mM Tris-HCl (pH 8.0), 1 mM EDTA, and 1 mM 2-mercaptoethanol, for 30 min on ice. Then 8.7 nM [^3H]IP3 (PerkinElmer Life Sciences) was added to the samples and incubated for 10 min on ice (total volume was 50 μl). The samples were mixed with 2 μl of 50 mg/ml γ-globulin and 50 μl of 30% PEG6000, 50 mM Tris-HCl (pH 8.0), and incubated for 5 min on ice. Non-specific binding was measured in the presence of 10 μM cold IP3. After centrifugation at 20,000×g for 5 min, the precipitate was dissolved in SOLVABLE™ (Packard) and the radioactivity was measured with a liquid scintillation counter (Beckman Coulter). Results are shown as the mean±S.D. from three independent experiments. (B) Purified His-IRBIT expressed in Sf9 cells was incubated with alkaline phosphatase for 30 min at 37° C. prior to the IP3 binding assay described as in (A). (C and D) Scatchard analysis. 0.1 μg of GST-EL was incubated with or without 1 μg of purified His-tagged IRBIT expressed in Sf9 cells as described in (A). Then 2.17 nM [^3H]IP3 and 2-500 nM cold IP3 were added to the samples and incubated for 10 min on ice (total volume was 100 μl). Non-specific binding was measured in the presence of 10 μM cold IP3. [^3H]IP3 binding to GST-EL was measured as described in (A).
The effect of IRBIT on binding of IP3 to IP3R was examined. GST-EL (0.2 μg) was incubated with 0.1, 1, or 10 μg of purified His-tagged IRBIT expressed in Sf9 cells or E. coli in a solution containing 50 mM Tris-HCl (pH 8.0), 1 mM EDTA, and 1 mM 2-mercaptoethanol, for 30 min on ice. Then 8.7 nM [^3H]IP3 (PerkinElmer Life Sciences) was added to the samples and incubated for 10 min on ice (total volume was 50 μl). The samples were mixed with 2 μl of 50 mg/ml γ-globulin and 50 μl of 30% PEG6000, 50 mM Tris-HCl (pH 8.0), and incubated for 5 min on ice. Non-specific binding was measured in the presence of 10 μM cold IP3. After centrifugation at 20,000×g for 5 min, the precipitate was dissolved in SOLVABLE™ (Packard) and the radioactivity was measured with a liquid scintillation counter (Beckman Coulter). […] 0.1 μg of GST-EL was incubated with or without 1 μg of purified His-tagged IRBIT expressed in Sf9 cells as described in (A). Then 2.17 nM [^3H]IP3 and 2-500 nM cold IP3 were added to the samples and incubated for 10 min on ice (total volume was 100 μl). Non-specific binding was measured in the presence of 10 μM cold IP3. [^3H]IP3 binding to GST-EL was measured as described in (A). […] Bmax was not changed.

[1] = S-adenosylhomocysteine hydrolase activity in the hydrolytic direction; type: biochemical; details: recombinant protein expressed in Escherichia coli; hydrolysis direction
Experimental: The S-adenosylhomocysteine hydrolase activity in the hydrolytic direction of recombinant IRBIT-His (open circle), GST-IRBIT (triangle), GST (square), and S-adenosylhomocysteine hydrolase (closed circle) were measured according to the known method (43). Results are shown as the mean±standard deviation from three independent experimental results.
To assay S-adenosylhomocysteine hydrolase activity in the hydrolytic direction, the color developed by the reaction between the product (Homocysteine) and 5,5′-dithiobis (2-nitrobenzoic acid) (Sigma) was measured spectroscopically using the purified IRBIT-His (3.0 μg), GST-IRBIT (4.3 μg), GST (1.3 μg) and rabbit S-adenosylhomocysteine hydrolase (Sigma) (2.4 μg), according to the known method (43). Absorbance at 412 nm was measured 0, 5, 20 and 60 minutes later using a DU 640 spectrophotometer (Beckman). Results are shown as the mean±standard deviation from three independent experiments (FIG. 2).

[2] = 1 μg His-tagged IRBIT (Sf9), 0.1 μg GST-EL

T1 sequence (P11881 1-2217 N1264K): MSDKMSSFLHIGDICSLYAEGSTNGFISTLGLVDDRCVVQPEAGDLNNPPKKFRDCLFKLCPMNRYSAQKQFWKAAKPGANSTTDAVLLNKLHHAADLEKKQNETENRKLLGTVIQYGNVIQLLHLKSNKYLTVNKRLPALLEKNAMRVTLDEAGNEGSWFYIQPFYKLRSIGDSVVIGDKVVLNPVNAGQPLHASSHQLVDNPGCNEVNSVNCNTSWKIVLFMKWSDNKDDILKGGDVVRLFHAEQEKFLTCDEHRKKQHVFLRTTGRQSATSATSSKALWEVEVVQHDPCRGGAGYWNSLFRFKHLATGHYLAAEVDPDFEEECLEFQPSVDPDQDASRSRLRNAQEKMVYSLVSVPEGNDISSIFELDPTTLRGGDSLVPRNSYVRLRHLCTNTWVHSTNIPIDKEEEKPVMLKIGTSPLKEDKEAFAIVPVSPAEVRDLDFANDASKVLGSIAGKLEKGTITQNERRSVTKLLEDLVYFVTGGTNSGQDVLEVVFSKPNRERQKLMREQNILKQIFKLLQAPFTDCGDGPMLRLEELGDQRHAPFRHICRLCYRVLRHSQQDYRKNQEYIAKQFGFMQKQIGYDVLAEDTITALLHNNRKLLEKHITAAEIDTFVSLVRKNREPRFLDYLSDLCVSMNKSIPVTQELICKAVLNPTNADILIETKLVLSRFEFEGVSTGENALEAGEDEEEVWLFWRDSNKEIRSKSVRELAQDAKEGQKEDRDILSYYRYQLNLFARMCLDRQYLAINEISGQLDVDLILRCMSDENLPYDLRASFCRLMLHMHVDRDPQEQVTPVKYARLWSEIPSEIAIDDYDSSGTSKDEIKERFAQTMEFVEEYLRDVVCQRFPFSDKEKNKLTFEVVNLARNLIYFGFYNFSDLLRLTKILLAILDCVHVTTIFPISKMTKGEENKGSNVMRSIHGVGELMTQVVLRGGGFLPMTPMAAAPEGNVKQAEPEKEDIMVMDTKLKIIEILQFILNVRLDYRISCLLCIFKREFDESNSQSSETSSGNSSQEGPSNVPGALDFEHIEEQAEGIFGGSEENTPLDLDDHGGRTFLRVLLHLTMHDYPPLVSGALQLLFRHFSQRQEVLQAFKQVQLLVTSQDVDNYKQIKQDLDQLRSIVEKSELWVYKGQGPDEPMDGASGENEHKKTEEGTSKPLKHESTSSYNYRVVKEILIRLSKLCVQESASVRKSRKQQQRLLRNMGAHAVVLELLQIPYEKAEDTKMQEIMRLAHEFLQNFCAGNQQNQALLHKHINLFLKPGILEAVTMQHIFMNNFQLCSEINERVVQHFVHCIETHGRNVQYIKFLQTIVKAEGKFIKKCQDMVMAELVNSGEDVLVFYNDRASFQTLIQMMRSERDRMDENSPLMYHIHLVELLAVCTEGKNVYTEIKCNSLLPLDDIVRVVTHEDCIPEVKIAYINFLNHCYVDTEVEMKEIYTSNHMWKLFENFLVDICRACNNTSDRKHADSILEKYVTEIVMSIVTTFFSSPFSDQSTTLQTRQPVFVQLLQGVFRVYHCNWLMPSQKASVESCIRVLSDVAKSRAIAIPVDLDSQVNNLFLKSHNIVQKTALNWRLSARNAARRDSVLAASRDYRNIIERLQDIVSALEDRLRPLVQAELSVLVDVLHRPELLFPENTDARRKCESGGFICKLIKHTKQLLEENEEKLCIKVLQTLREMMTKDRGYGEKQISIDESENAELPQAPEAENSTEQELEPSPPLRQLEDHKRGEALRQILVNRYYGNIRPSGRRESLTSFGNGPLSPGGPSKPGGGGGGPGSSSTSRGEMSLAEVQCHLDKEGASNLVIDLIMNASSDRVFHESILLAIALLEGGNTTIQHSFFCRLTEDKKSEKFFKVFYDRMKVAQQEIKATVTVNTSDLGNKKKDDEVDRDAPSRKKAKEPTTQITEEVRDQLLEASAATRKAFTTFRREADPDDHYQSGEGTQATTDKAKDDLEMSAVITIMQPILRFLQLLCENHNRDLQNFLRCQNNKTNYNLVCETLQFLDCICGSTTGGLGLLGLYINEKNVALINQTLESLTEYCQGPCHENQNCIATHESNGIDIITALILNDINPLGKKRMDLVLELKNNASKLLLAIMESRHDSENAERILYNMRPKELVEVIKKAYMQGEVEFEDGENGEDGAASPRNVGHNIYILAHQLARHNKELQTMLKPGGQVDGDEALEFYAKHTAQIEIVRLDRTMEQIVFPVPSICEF

Bmax (Scatchard analysis) (GST-EL (IP3R); [2]) | affinity of GST-EL to IP3 (Scatchard analysis) (GST-EL (IP3R); [2]) | effect on IP3 binding of GST-EL (GST-EL (IP3R); 0.1, 1 or 10 μg His-tagged IRBIT expressed in Sf9, 8.7 nM [3H]IP3) | Molecule | S-adenosylhomocysteine hydrolase activity [1]
not changed | decreased the affinity | dose-dependently suppressed | His-IRBIT: purified His-tagged IRBIT expressed in Sf9 cells (protein, left off: small tags and cut ends, purified His-tagged IRBIT expressed in Sf9 cells) MSMPDAMPLPGVGEELKQAKEIEDAEKYSFMATVTKAPKKQIQFADDMQEFTKFPTKTGRRSLSRSISQSSTDSYSSAASYTDSSDDEVSPREKQQTNSKGSSNFCVKNIKQAEFGRREIEIAEQDMSALISLRKRAQGEKPLAGAKIVGCTHITAQTAVLIETLCALGAQCRWSACNIYSTQNEVAAALAEAGVAVFAWKGESEDDFWWCIDRCVNMDGWQANMILDDGGDLTHWVYKKYPNVFKKIRGIVEESVTGVHRLYQLSKAGKLCVPAMNVNDSVTKQKFDNLYCCRESILDGLKRTTDVMFGGKQVVVCGYGEVGKGCCAALKALGAIVYITEIDPICALQACMDGFRVVKLNEVIRQVDVVITCTGNKNVVTREHLDRMKNSCIVCNMGHSNTEIDVTSLRTPELTWERVRSQVDHVIWPDGKRVVLLAEGRLLNLSCSTVPTFVLSITATTQALALIELYNAPEGRYKQDVYLLPKKMDEYVASLHLPSFDAHLTELTDDQAKYLGLNKNGPFKPNYYRY | –
– | – | – | IRBIT-His: C-terminally His-tagged full-length IRBIT expressed in Escherichia coli (protein, UniProt O43865 1-530, looked up, full-length C-terminal His tag, C-terminally His-tagged full-length IRBIT expressed in Escherichia coli) MSMPDAMPLPGVGEELKQAKEIEDAEKYSFMATVTKAPKKQIQFADDMQEFTKFPTKTGRRSLSRSISQSSTDSYSSAASYTDSSDDEVSPREKQQTNSKGSSNFCVKNIKQAEFGRREIEIAEQDMSALISLRKRAQGEKPLAGAKIVGCTHITAQTAVLIETLCALGAQCRWSACNIYSTQNEVAAALAEAGVAVFAWKGESEDDFWWCIDRCVNMDGWQANMILDDGGDLTHWVYKKYPNVFKKIRGIVEESVTGVHRLYQLSKAGKLCVPAMNVNDSVTKQKFDNLYCCRESILDGLKRTTDVMFGGKQVVVCGYGEVGKGCCAALKALGAIVYITEIDPICALQACMDGFRVVKLNEVIRQVDVVITCTGNKNVVTREHLDRMKNSCIVCNMGHSNTEIDVTSLRTPELTWERVRSQVDHVIWPDGKRVVLLAEGRLLNLSCSTVPTFVLSITATTQALALIELYNAPEGRYKQDVYLLPKKMDEYVASLHLPSFDAHLTELTDDQAKYLGLNKNGPFKPNYYRY | neither of the recombinant IRBITs had enzyme activity
– | – | – | GST-IRBIT: N-terminally GST-tagged full-length IRBIT expressed in Escherichia coli (protein, UniProt O43865 1-530, looked up, full-length N-terminal GST tag, N-terminally GST-tagged full-length IRBIT expressed in Escherichia coli) MSMPDAMPLPGVGEELKQAKEIEDAEKYSFMATVTKAPKKQIQFADDMQEFTKFPTKTGRRSLSRSISQSSTDSYSSAASYTDSSDDEVSPREKQQTNSKGSSNFCVKNIKQAEFGRREIEIAEQDMSALISLRKRAQGEKPLAGAKIVGCTHITAQTAVLIETLCALGAQCRWSACNIYSTQNEVAAALAEAGVAVFAWKGESEDDFWWCIDRCVNMDGWQANMILDDGGDLTHWVYKKYPNVFKKIRGIVEESVTGVHRLYQLSKAGKLCVPAMNVNDSVTKQKFDNLYCCRESILDGLKRTTDVMFGGKQVVVCGYGEVGKGCCAALKALGAIVYITEIDPICALQACMDGFRVVKLNEVIRQVDVVITCTGNKNVVTREHLDRMKNSCIVCNMGHSNTEIDVTSLRTPELTWERVRSQVDHVIWPDGKRVVLLAEGRLLNLSCSTVPTFVLSITATTQALALIELYNAPEGRYKQDVYLLPKKMDEYVASLHLPSFDAHLTELTDDQAKYLGLNKNGPFKPNYYRY | neither of the recombinant IRBITs had enzyme activity
